Data published in patent US20230125550A1 (ARCELLX, published 2023).
Substitutions are numbered along the chain they refer to.

Biological target: T1, recombinant human CD123-Fc (human, UniProt P26951 19-305)
T1 construct: not shown: Fc part of CD123-Fc
T1 sequence: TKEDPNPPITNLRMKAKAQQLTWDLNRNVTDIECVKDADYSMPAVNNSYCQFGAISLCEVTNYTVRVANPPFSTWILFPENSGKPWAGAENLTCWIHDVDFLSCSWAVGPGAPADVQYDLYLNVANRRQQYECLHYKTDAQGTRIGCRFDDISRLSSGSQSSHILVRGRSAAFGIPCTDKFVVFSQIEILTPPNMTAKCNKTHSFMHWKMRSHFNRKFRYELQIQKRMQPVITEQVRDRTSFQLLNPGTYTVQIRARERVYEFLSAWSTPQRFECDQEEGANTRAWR
Assay: phage ELISA, captured CD123-Fc
Protocol: Individual colonies containing phagemid from BCMA panning output were picked and phage were rescued in 96-well format using VCSM13 helper phage following standard protocols. To assay target binding by ELISA, 96-well plates were coated with 1.3 microg/ml goat anti-human IgG1-Fc antibody followed by incubation with 5 nM of recombinant human target (BCMA-Fc, CD123-Fc, AFP, or AFP123) or IgG1-Fc. 50 microl of rescued phage diluted 5× in ELISA blocking buffer was then added to each well. Binding was detected using an HRP-conjugated anti-M13 antibody and the ELISA ratio for each sequence is reported as the absorbance at 450 nm for target (i.e., BCMA-Fc, CD123-Fc, AFP, or AFP123) divided by that for IgG1-Fc averaged across all screened wells containing that clone.

B1: SEQ ID NO: 445 (designed binder)
chain: MGSWMFFKEDLADIKWALEALGGSEAELAFFEEEIALFEQHLQQYKGKGNPEVEALRKEAAAIRDELQAYRHN
notes: D domain, on phage
ELISA_avg: 3.2 ratio A450 target/IgG1-Fc

B2: SEQ ID NO: 477 (designed binder)
chain: B1 chain with M5S, F6W, W16F, A17E, F30W, E33L, E34D, L37D, H41A
notes: D domain, on phage
ELISA_avg: 6.8 ratio A450 target/IgG1-Fc

B3: SEQ ID NO: 469 (designed binder)
chain: MGSWEEFKEDLAEIKVWLEALGGSEAELAWFEMGIADFEDGLQFYKGKGNPEVEALRKEAAAIRDELQAYRHN
notes: D domain, on phage
ELISA_avg: 4.3 ratio A450 target/IgG1-Fc

B4: SEQ ID NO: 470 (designed binder)
chain: B3 chain with E5H, E6W, E13N, V16D, M33D, G34N, D40G, G41D, F44V
notes: D domain, on phage
ELISA_avg: 3.3 ratio A450 target/IgG1-Fc

B5: SEQ ID NO: 442 (designed binder)
chain: MGSWGHFKQDLAWIKDTLEALGGSEAELAFFEDDIAMFEMELQDYKGKGNPEVEALRKEAAAIRDELQAYRHN
notes: D domain, on phage
ELISA_avg: 4.9 ratio A450 target/IgG1-Fc

B6: SEQ ID NO: 459 (designed binder)
chain: B5 chain with G5I, H6F, W13E, D16L, T17N, F30W, M37W, M40S, E41H
notes: D domain, on phage
ELISA_avg: 3.8 ratio A450 target/IgG1-Fc

B7: SEQ ID NO: 476 (designed binder)
chain: B5 chain with G5S, H6W, W13D, D16I, T17Q, F30W, D33W, M37E, M40F
notes: D domain, on phage
ELISA_avg: 4 ratio A450 target/IgG1-Fc

B8: SEQ ID NO: 451 (designed binder)
chain: MGSWYWFKQDLAHIKSMLEALGGSEAELAWFEEDIADFESELQEYKGKGNPEVEALRKEAAAIRDELQAYRHN
notes: D domain, on phage
ELISA_avg: 3.3 ratio A450 target/IgG1-Fc

B9: SEQ ID NO: 452 (designed binder)
chain: B8 chain with Y5T, W6F, Q9W, H13D, S16A, M17N, I35L, D37G, S40A
notes: D domain, on phage
ELISA_avg: 4.8 ratio A450 target/IgG1-Fc

B10: SEQ ID NO: 456 (designed binder)
chain: B8 chain with Q9E, D10E, H13F, S16W, M17E, W30L, D37Y, S40E, E41M
notes: D domain, on phage
ELISA_avg: 9.4 ratio A450 target/IgG1-Fc

B11: SEQ ID NO: 455 (designed binder)
chain: B8 chain with Y5Q, W6T, Q9D, D10E, S16W, M17E, E33W, D37N, S40E
notes: D domain, on phage
ELISA_avg: 5.5 ratio A450 target/IgG1-Fc

B12: SEQ ID NO: 457 (designed binder)
chain: MGSWNSFKDELAEIKAELEALGGSEAELAFFEEDIAWFEEHLQQYKGKGNPEVEALRKEAAAIRDELQAYRHN
notes: D domain, on phage
ELISA_avg: 3.3 ratio A450 target/IgG1-Fc

B13: SEQ ID NO: 458 (designed binder)
chain: B12 chain with N5D, S6L, D9W, A16L, E17G, F30E, E33Y, H41D, Q44D
notes: D domain, on phage
ELISA_avg: 3.4 ratio A450 target/IgG1-Fc

B14: SEQ ID NO: 439 (designed binder)
chain: MGSWQWFKDDLAYIKETLEALGGSEAELALFEDMIADFEFELQWYKGKGNPEVEALRKEAAAIRDELQAYRHN
notes: D domain, on phage
ELISA_avg: 6.3 ratio A450 target/IgG1-Fc

B15: SEQ ID NO: 440 (designed binder)
chain: B14 chain with Q5I, W6L, Y13W, L30F, M34N, F40E, E41Q, W44G
notes: D domain, on phage
ELISA_avg: 6 ratio A450 target/IgG1-Fc

B16: SEQ ID NO: 444 (designed binder)
chain: B14 chain with Q5Y, Y13E, E16G, T17L, L30E, M34E, D37V, F40Q, W44E
notes: D domain, on phage
ELISA_avg: 10.4 ratio A450 target/IgG1-Fc

B17: SEQ ID NO: 443 (designed binder)
chain: MGSWGYFKDDLAWIKGELEALGGSEAELAEFEWFIAVFEEDLQVYKGKGNPEVEALRKEAAAIRDELQAYRHN
notes: D domain, on phage
ELISA_avg: 4.5 ratio A450 target/IgG1-Fc

B18: SEQ ID NO: 471 (designed binder)
chain: MGSWFWFKEDLAFIKEDLEALGGSEAELAWFEDGIAFFEWDLQDYKGKGNPEVEALRKEAAAIRDELQAYRHN
notes: D domain, on phage
ELISA_avg: 13.7 ratio A450 target/IgG1-Fc

B19: SEQ ID NO: 473 (designed binder)
chain: B18 chain with F5H, F13I, E16Q, W30T, D33Q, G34W, F37E, D44E
notes: D domain, on phage
ELISA_avg: 5.5 ratio A450 target/IgG1-Fc

B20: SEQ ID NO: 474 (designed binder)
chain: B18 chain with F5N, F13I, E16M, D33H, G34N, F37G, W40F, D41E, D44G
notes: D domain, on phage
ELISA_avg: 3.1 ratio A450 target/IgG1-Fc

B21: SEQ ID NO: 472 (designed binder)
chain: B18 chain with F5Q, F13E, E16H, G34F, F37Q, W40F, D44W
notes: D domain, on phage
ELISA_avg: 3.8 ratio A450 target/IgG1-Fc

B22: SEQ ID NO: 475 (designed binder)
chain: MGSWSWFKEDLAEIKMELEALGGSEAELAYFEWYIAEFEFQLQHYKGKGNPEVEALRKEAAAIRDELQAYRHN
notes: D domain, on phage
ELISA_avg: 4.8 ratio A450 target/IgG1-Fc

B23: SEQ ID NO: 478 (designed binder)
chain: B22 chain with E13S, M16A, E17V, Y30F, W33S, Y34D, F40Q, Q41E, H44Y
notes: D domain, on phage
ELISA_avg: 6.9 ratio A450 target/IgG1-Fc

B24: SEQ ID NO: 461 (designed binder)
chain: MGSWVTFKDELADIKDFLEALGGSEAELAFFEVDIAEFEAELQFYKGKGNPEVEALRKEAAAIRDELQAYRHN
notes: D domain, on phage
ELISA_avg: 7.6 ratio A450 target/IgG1-Fc

B25: SEQ ID NO: 465 (designed binder)
chain: B24 chain with V5Y, T6V, D13E, D16Q, F30W, V33D, A40T, E41Q, F44H
notes: D domain, on phage
ELISA_avg: 9.9 ratio A450 target/IgG1-Fc

B26: SEQ ID NO: 462 (designed binder)
chain: B24 chain with T6Y, F30E, V33E, E37T, A40Y, E41D, F44W
notes: D domain, on phage
ELISA_avg: 4.6 ratio A450 target/IgG1-Fc

B27: SEQ ID NO: 453 (designed binder)
chain: MGSWSFFKEELANIQVYLEALGGSEAELAWFEEDIADFEEDLQHYKGKGNPEVEALRKEAAAIRDELQAYRHN
notes: D domain, on phage
ELISA_avg: 3.8 ratio A450 target/IgG1-Fc

B28: SEQ ID NO: 454 (designed binder)
chain: B12 chain with N5E, S6F, D9Y, E13D, A16D, F30W, W37T, H41W, Q44G
notes: D domain, on phage
ELISA_avg: 3.4 ratio A450 target/IgG1-Fc

B29: SEQ ID NO: 441 (designed binder)
chain: MGSWIVFKDDLADIKRWLEALGGSEAELAMFEDEIADFEWQLQDYKGKGNPEVEALRKEAAAIRDELQAYRHN
notes: D domain, on phage
ELISA_avg: 3.9 ratio A450 target/IgG1-Fc

B30: SEQ ID NO: 449 (designed binder)
chain: B29 chain with I5T, V6Y, R16Q, M30F, D33I, D37E, W40E, Q41E, D44E
notes: D domain, on phage
ELISA_avg: 4.6 ratio A450 target/IgG1-Fc

B31: SEQ ID NO: 446 (designed binder)
chain: B1 chain with M5T, D13G, A17E, F30W, E33D, Q40E, H41E, Q44E
notes: D domain, on phage
ELISA_avg: 7 ratio A450 target/IgG1-Fc

B32: SEQ ID NO: 447 (designed binder)
chain: B24 chain with T6F, E10D, F17E, V33I, D34A, E37L, A40W, F44E
notes: D domain, on phage
ELISA_avg: 8.8 ratio A450 target/IgG1-Fc

B33: SEQ ID NO: 450 (designed binder)
chain: B29 chain with I5T, D9Y, R16W, M30D, D33E, D37E, W40E, Q41E, D44E
notes: D domain, on phage
ELISA_avg: 3.9 ratio A450 target/IgG1-Fc

B34: SEQ ID NO: 466 (designed binder)
chain: MGSWIFFKEQLAIIKWELEALGGSEAELAWFEDDIAAFEDDLQFYKGQGNPEVEALRKEAAAIRDELQAYRHN
notes: D domain, on phage
ELISA_avg: 15 ratio A450 target/IgG1-Fc

B35: SEQ ID NO: 467 (designed binder)
chain: MGSWEFFKEVLAEIKYDLEALGGSEAELAWFETDIAGFEIDLQVYKGKGNPEVEALRKEAAAIRDELQAYRHN
notes: D domain, on phage
ELISA_avg: 8.2 ratio A450 target/IgG1-Fc

B36: SEQ ID NO: 468 (designed binder)
chain: B3 chain with E5V, E6F, E13T, V16N, W17D, G34M, D40A, G41D, F44Y
notes: D domain, on phage
ELISA_avg: 3.1 ratio A450 target/IgG1-Fc

B37: SEQ ID NO: 448 (designed binder)
chain: MGSWTFFKNDLAEIKDWLEALGGSEAELADFEWDIAEFEYSLQEYKGKGNPEVEALRKEAAAIRDELQAYRHN
notes: D domain, on phage
ELISA_avg: 3.9 ratio A450 target/IgG1-Fc

B38: SEQ ID NO: 460 (designed binder)
chain: MGSWHLFKWTLAEIKYELEALGGSEAELAWFEDDIATFEEELQWYKGKGNPEVEALRKEAAAIRDELQAYRHN
notes: D domain, on phage
ELISA_avg: 4 ratio A450 target/IgG1-Fc

B39: SEQ ID NO: 463 (designed binder)
chain: B24 chain with V5E, D9Y, D13E, F17Y, F30W, V33D, A40F, F44Y
notes: D domain, on phage
ELISA_avg: 4.4 ratio A450 target/IgG1-Fc

B40: SEQ ID NO: 464 (designed binder)
chain: B24 chain with V5N, D9Y, D13E, D16H, F30M, V33D, E37M, A40W, F44E
notes: D domain, on phage
ELISA_avg: 5 ratio A450 target/IgG1-Fc
